According to patent publication US20160355553A1 (Janssen / Centocor, published 2016):
Substitutions are numbered along the chain they refer to.

T1: FL4-06 B-m2-CL1+5-GCN4a (influenza B virus, UniProt P03461 6-574)
T1 chain: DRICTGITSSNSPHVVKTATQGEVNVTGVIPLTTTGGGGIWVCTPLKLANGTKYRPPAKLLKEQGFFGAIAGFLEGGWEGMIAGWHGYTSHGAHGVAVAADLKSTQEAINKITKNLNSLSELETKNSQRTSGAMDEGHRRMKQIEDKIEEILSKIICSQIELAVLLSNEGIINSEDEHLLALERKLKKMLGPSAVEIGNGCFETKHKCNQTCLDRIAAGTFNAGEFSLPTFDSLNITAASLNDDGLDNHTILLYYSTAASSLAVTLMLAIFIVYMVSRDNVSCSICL

T2: FL4-06 B-m2-CL1+5-GCN4b (influenza B virus, UniProt P03461 6-574)
T2 chain: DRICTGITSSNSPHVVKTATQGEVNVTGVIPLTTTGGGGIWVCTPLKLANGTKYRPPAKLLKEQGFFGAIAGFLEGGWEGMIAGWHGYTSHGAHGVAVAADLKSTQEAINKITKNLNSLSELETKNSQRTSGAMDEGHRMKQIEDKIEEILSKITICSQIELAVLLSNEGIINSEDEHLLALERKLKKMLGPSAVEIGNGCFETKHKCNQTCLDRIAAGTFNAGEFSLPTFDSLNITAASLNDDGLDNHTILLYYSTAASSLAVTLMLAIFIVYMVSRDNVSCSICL

T3: Mal2506-04 B-m2 (influenza B virus, UniProt P03461 6-574)
T3 chain: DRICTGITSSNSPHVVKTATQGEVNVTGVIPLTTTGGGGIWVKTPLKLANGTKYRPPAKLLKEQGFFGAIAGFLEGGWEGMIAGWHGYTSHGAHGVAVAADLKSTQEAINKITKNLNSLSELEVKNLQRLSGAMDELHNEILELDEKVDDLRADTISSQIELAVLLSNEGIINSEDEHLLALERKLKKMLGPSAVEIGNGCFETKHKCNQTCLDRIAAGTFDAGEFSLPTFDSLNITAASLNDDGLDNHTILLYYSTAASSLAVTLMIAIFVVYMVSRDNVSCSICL

T4: Mal2506-04 B-m2-CL1+5 (influenza B virus, UniProt P03461 6-574)
T4 chain: T3 chain with K43C, V124T, L127S, L130T, L137G, S157C

T5: Mal2506-04 B-m2-CL1+5-GCN4a (influenza B virus, UniProt P03461 6-574)
T5 chain: T1 chain with N222D, L268I, I272V

B1: CR9114 (antibody, V domains shown)
VH: QVQLVQSGAEVKKPGSSVKVSCKSSGGTSNNYAISWVRQAPGQGLDWMGGISPIFGSTAYAQKFQGRVTISADIFSNTAYMELNSLTSEDTAVYFCARHGNYYYYSGMDVWGQGTTVTVSS
VL: SYVLTQPPAVSGTPGQRVTISCSGSDSNIGRRSVNWYQQFPGTAPKLLIYSNDQRPSVVPDRFSGSKSGTSASLAISGLQSEDEAEYYCAAWDDSLKGAVFGGGTQLTVL
B2: CR8057 (antibody, V domains shown)
VH: EVQLVESGGGLVQPGGSLRLSCAASGFTDSVIFMSWVRQAPGKGLECVSIIYIDDSTYYADSVKGRFTISRHNSMGTVFLEMNSLRPDDTAVYYCATESGDFGDQTGPYHYYAMDV
VL: QSALTQPASVSGSPGQSITISCTGSSGDIGGYNAVSWYQHHPGKAPKLMIYEVTSRPSGVSDRFSASRSGDTASLTVSGLQAEDEAHYYCCSFADSNILI

What was measured:
[1] = biological target: FL4-06 B-m2 (influenza B virus, UniProt P03461 6-574); test: FACS, transfected cells
[2] = biological target: T1, FL4-06 B-m2-CL1+5-GCN4a; test: FACS, transfected cells
[3] = biological target: T2, FL4-06 B-m2-CL1+5-GCN4b; test: FACS, transfected cells
[4] = biological target: T3, Mal2506-04 B-m2; test: FACS, transfected cells
[5] = biological target: T4, Mal2506-04 B-m2-CL1+5; test: FACS, transfected cells
[6] = biological target: T5, Mal2506-04 B-m2-CL1+5-GCN4a; test: FACS, transfected cells
[7] = biological target: HK68 H3m2-cl9+10+12 (influenza A virus H3N2, UniProt Q91MA7 17-566); test: FACS on HEK293F [D00014 FIG. 10B]
[8] = biological target: HK68 H3m2-cl9+10+11+12 (influenza A virus H3N2, UniProt Q91MA7 17-566); test: FACS on HEK293F [D00014 FIG. 10B]
[9] = biological target: HK68 H3m2-cl9+10+11+13 (influenza A virus H3N2, UniProt Q91MA7 17-566); test: FACS on HEK293F [D00014 FIG. 10B]
[10] = biological target: HK68 H3m2-cl9+10+11+12-tri (influenza A virus H3N2, UniProt Q91MA7 17-566); test: FACS on HEK293F [D00014 FIG. 10B]
[11] = biological target: HK68 H3m2-cl9+10+11+13-tri (influenza A virus H3N2, UniProt Q91MA7 17-566); test: FACS on HEK293F [D00014 FIG. 10B]
[12] = biological target: HK68 H3m2-cl9+10+11+12-GCN4 (influenza A virus H3N2, UniProt Q91MA7 17-566); test: FACS on HEK293F [D00014 FIG. 10B]
[13] = biological target: HK68 H3m2-cl9 (influenza A virus H3N2, UniProt Q91MA7 17-566); test: FACS on HEK293F [D00014 FIG. 10B]
[14] = biological target: HK68 H3m2-cl9+10 (influenza A virus H3N2, UniProt Q91MA7 17-566); test: FACS on HEK293F [D00014 FIG. 10B]

| Binder | binding result [1] | binding result [2] | binding result [3] | binding result [4] | binding result [5] | binding result [6] | binding result [7] | binding result [8] | binding result [9] | binding result [10] | binding result [11] | binding result [12] | binding result [13] | binding result [14] |
| --- | --- | --- | --- | --- | --- | --- | --- | --- | --- | --- | --- | --- | --- | --- |
| B1 | no binding | no binding | no binding | no binding | no binding | no binding | – | – | – | – | – | – | – | – |
| B2 | – | – | – | – | – | – | no binding (tested: 5 ug/ml) | no binding (tested: 5 ug/ml) | no binding (tested: 5 ug/ml) | no binding (tested: 5 ug/ml) | no binding (tested: 5 ug/ml) | no binding (tested: 5 ug/ml) | no binding (tested: 5 ug/ml) | no binding (tested: 5 ug/ml) |
